The values that follow come from publication PMC12809078.

For this assay, the target named is full-length SUMO-CtBP2 (human) (UniProt P56545). Kind of assay: SEC; Superose 6 Increase 10/300 GL; 20 mM Tris-HCl pH 8.0, 150 mM NaCl, 2 mM DTT; 0.35 ml/min.

In turn, “full-length SUMO-CtBP2, P56545 1-445 (natural protein; other documents disagree on this pair)” registered a stoichiometry N of 4.
